In PMC3479173:
Residue numbers refer to the chain shown, from its start.

Key:
THAP1 THAP domain WT [1] = molecular target: T1, THAP1 THAP domain WT (human, UniProt Q9NVV9 1-81); test: ITC
T1 sequence: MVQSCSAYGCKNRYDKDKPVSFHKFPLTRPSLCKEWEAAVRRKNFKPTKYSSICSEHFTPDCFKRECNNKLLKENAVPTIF

THAP1 THAP domain F81L [2] = molecular target: T2, THAP1 THAP domain F81L (human, UniProt Q9NVV9 1-81, F81L); test: ITC
T2 sequence: T1 sequence with F81L

THAP1 THAP domain Y8C [3] = molecular target: T3, THAP1 THAP domain Y8C (human, UniProt Q9NVV9 1-81, Y8C); test: ITC
T3 sequence: T1 sequence with Y8C

THAP1 THAP domain WT [4] = molecular target: T1, THAP1 THAP domain WT; test: fluorescence quenching
THAP1 THAP domain F81L [5] = molecular target: T2, THAP1 THAP domain F81L; test: fluorescence quenching
THAP1 THAP domain D17G = molecular target: T4, THAP1 THAP domain D17G (human, UniProt Q9NVV9 1-81, D17G); test: fluorescence quenching
T4 sequence: T1 sequence with D17G

THAP1 THAP domain Y8C [6] = molecular target: T3, THAP1 THAP domain Y8C; test: fluorescence quenching
THAP1 THAP domain N12K [7] = molecular target: T5, THAP1 THAP domain N12K (human, UniProt Q9NVV9 1-81, N12K); test: ITC
T5 sequence: T1 sequence with N12K

THAP1 THAP domain N12K [8] = molecular target: T5, THAP1 THAP domain N12K; test: fluorescence quenching

B1: RRM1 16-bp DNA probe (dsDNA)
DNA 1: GCTTGTGTGGGCAGCG
DNA 2: CGCTGCCCACACAAGC
- Kd (THAP1 THAP domain WT [1]): 540 ± 190 nM
- Kd (THAP1 THAP domain F81L [2]): 700 ± 60 nM
- Kd (THAP1 THAP domain Y8C [3]): 510 ± 100 nM
- Kd (THAP1 THAP domain WT [4]): 150 ± 10 nM
- Kd (THAP1 THAP domain F81L [5]): 100 ± 10 nM
- Kd (THAP1 THAP domain D17G): 25 ± 5 nM
- Kd (THAP1 THAP domain Y8C [6]): 230 ± 20 nM

B2: 14-bp non-specific DNA (ns) (dsDNA)
DNA 1: GATTTGCATTTTAA
DNA 2: TTAAAATGCAAATC
- Kd (THAP1 THAP domain WT [1]): 8930 ± 1280 nM
- Kd (THAP1 THAP domain N12K [7]): 1750 ± 500 nM
- Kd (THAP1 THAP domain WT [4]): 1800 ± 150 nM
- Kd (THAP1 THAP domain N12K [8]): 400 ± 65 nM
